Assay results from patent US20220175942A1 (OXFORD UNIVERSITY INNOVATION, published 2022).

B3: CCL3_HUMAN (ligand)
chain: SLAADTPTACCFSYTSRQIPQNFIADYFETSSQCSKPGVIFLTKRSRQVCADPSEEWVQKYVSDLELSA
notes: Biotinylated (detected with streptavidin-Alexa647) in yeast display; AlexaFluor 647 labelled (Almac) in thermophoresis
B6: CCL17_HUMAN (ligand)
chain: ARGTNVGRECCLEYFKGAIPLRKLKTWYQTSEDCSRDAIVFVTVQGRAICSDPNNKRVKNAVKYLQSLERS
notes: as for B3

How the values were obtained:
CCL19_HUMAN [1] = biological target: T1, CCL19_HUMAN (human, UniProt Q99731 22-98); assay: yeast surface display FACS re-test, >3 fold MFI over control (col D);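 further: yeast displaying putative tick Evasins stained with biotinylated human chemokine plus streptavidin-Alexa647, flow cytometry, positive when MFI exceeds 3-fold the empty-vector or no-chemokine background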
T1 construct: Biotinylated (detected with streptavidin-Alexa647) in yeast display; AlexaFluor 647 labelled (Almac) in thermophoresis
T1 sequence: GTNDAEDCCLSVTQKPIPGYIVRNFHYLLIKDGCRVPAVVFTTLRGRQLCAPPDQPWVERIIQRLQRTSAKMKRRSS

CCL25_HUMAN [2] = biological target: T2, CCL25_HUMAN (human, UniProt O15444 24-150); assay: as above
T2 construct: Biotinylated (detected with streptavidin-Alexa647) in yeast display; AlexaFluor 647 labelled (Almac) in thermophoresis
T2 sequence: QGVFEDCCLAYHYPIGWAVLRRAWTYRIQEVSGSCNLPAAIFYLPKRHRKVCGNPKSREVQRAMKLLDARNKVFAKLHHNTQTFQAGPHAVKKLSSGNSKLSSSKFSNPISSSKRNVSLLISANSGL

CCL8_HUMAN = biological target: T3, CCL8_HUMAN (human, UniProt P80075 24-99); assay: as above
T3 construct: Biotinylated (detected with streptavidin-Alexa647) in yeast display; AlexaFluor 647 labelled (Almac) in thermophoresis
T3 sequence: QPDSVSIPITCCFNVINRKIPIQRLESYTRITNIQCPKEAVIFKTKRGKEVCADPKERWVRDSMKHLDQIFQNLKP

CXCL10_HUMAN [3] = biological target: T4, CXCL10_HUMAN (human, UniProt P02778 22-98); assay: as above
T4 construct: Biotinylated (detected with streptavidin-Alexa647) in yeast display; AlexaFluor 647 labelled (Almac) in thermophoresis
T4 sequence: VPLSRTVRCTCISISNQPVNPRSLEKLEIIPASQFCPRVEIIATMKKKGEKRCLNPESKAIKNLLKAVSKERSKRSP

CCL20_HUMAN [4] = biological target: T5, CCL20_HUMAN (human, UniProt P78556 27-96); assay: as above
T5 construct: Biotinylated (detected with streptavidin-Alexa647) in yeast display; AlexaFluor 647 labelled (Almac) in thermophoresis
T5 sequence (P78556 27-96 limits assumed): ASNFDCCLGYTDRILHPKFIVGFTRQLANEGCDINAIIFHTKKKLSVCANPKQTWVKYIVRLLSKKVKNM

CCL18_HUMAN = biological target: T6, CCL18_HUMAN (human, UniProt P55774 21-89); assay: as above
T6 construct: Biotinylated (detected with streptavidin-Alexa647) in yeast display; AlexaFluor 647 labelled (Almac) in thermophoresis
T6 sequence: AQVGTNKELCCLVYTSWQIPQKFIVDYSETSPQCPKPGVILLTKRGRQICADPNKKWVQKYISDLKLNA

CCL17_HUMAN [5] = biological target: B6; assay: as above
CCL5_HUMAN [6] = biological target: T7, CCL5_HUMAN (human, UniProt P13501 24-91); assay: yeast surface display library FACS screen, labelled chemokine (col C: isolated in)
T7 construct: Biotinylated (detected with streptavidin-Alexa647) in yeast display; AlexaFluor 647 labelled (Almac) in thermophoresis
T7 sequence: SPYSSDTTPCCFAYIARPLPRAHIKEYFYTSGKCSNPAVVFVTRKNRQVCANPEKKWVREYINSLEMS

CXCL8_HUMAN = biological target: T8, CXCL8_HUMAN (human, UniProt P10145 28-99); assay: as above
T8 construct: Biotinylated (detected with streptavidin-Alexa647) in yeast display; AlexaFluor 647 labelled (Almac) in thermophoresis
T8 sequence: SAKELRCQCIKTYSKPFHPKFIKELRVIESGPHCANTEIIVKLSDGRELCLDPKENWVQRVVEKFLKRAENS

CCL1_HUMAN = biological target: T9, CCL1_HUMAN (human, UniProt P22362 24-96); assay: as above
T9 construct: Biotinylated (detected with streptavidin-Alexa647) in yeast display; AlexaFluor 647 labelled (Almac) in thermophoresis
T9 sequence: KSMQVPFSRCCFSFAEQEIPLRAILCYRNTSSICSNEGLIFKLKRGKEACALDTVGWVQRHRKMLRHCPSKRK

CCL11_HUMAN = biological target: T10, CCL11_HUMAN (human, UniProt P51671 24-97); assay: as above
T10 construct: Biotinylated (detected with streptavidin-Alexa647) in yeast display; AlexaFluor 647 labelled (Almac) in thermophoresis
T10 sequence (P51671 24-97 limits assumed): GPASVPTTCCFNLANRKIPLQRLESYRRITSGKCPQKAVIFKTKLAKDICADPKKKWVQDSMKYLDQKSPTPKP

CCL19_HUMAN [7] = biological target: T1, CCL19_HUMAN; assay: as above
CXCL10_HUMAN [8] = biological target: T4, CXCL10_HUMAN; assay: as above
CCL3_HUMAN = biological target: B3; assay: as above
P1243_AMBAM [9] = biological target: T11, P1243_AMBAM (Amblyomma americanum, UniProt A0A0C9S461 26-123); assay: yeast surface display FACS re-test, >3 fold MFI over control (col D);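 further: yeast displaying putative tick Evasins stained with biotinylated human chemokine plus streptavidin-Alexa647, flow cytometry, positive when MFI exceeds 3-fold the empty-vector or no-chemokine background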
T11 construct: Tick evasin; also called Evasin
T11 sequence: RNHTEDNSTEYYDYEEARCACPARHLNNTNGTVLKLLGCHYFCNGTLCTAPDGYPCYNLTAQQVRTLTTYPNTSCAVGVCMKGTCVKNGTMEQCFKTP

P467_RHIPU = biological target: T12, P467_RHIPU (Rhipicephalus pulchellus, UniProt L7M8Z8 22-127); assay: yeast surface display library FACS screen, labelled chemokine (col C: isolated in)
T12 construct: Tick evasin; also called Evasin
T12 sequence: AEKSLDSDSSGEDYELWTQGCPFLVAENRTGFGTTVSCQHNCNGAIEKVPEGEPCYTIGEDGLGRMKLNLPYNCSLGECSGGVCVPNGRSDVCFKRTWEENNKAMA

P1181_AMBMA = biological target: T13, P1181_AMBMA (Amblyomma maculatum, UniProt G3MIX6 26-115); assay: as above
T13 construct: Tick evasin; also called Evasin
T13 sequence: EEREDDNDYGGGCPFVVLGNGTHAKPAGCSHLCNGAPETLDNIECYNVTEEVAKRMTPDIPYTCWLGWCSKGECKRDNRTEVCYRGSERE

P1182_AMBMA = biological target: T14, P1182_AMBMA (Amblyomma maculatum, UniProt G3MJ83 27-115); assay: as above
T14 construct: Tick evasin; also called Evasin
T14 sequence: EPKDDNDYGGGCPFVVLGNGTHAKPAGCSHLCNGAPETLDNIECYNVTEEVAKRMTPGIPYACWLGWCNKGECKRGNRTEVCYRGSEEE

P546_AMBCA [10] = biological target: T15, P546_AMBCA (Amblyomma cajennense, UniProt A0A023FBW7 22-118); assay: microscale thermophoresis, AlexaFluor 647 labelled chemokine
T15 construct: Tick evasin; also called Evasin
T15 sequence: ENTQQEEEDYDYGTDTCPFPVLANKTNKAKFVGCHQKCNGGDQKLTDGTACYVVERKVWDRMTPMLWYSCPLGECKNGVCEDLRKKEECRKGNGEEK

CCL20_HUMAN [11] = biological target: T5, CCL20_HUMAN; assay: yeast surface display library FACS screen, labelled chemokine (col C: isolated in)
CCL17_HUMAN [12] = biological target: B6; assay: as above
CCL5_HUMAN [13] = biological target: T7, CCL5_HUMAN; assay: yeast surface display FACS re-test, >3 fold MFI over control (col D);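 further: yeast displaying putative tick Evasins stained with biotinylated human chemokine plus streptavidin-Alexa647, flow cytometry, positive when MFI exceeds 3-fold the empty-vector or no-chemokine background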
CCL22_HUMAN = biological target: T16, CCL22_HUMAN (human, UniProt O00626 25-93); assay: as above
T16 construct: Biotinylated (detected with streptavidin-Alexa647) in yeast display; AlexaFluor 647 labelled (Almac) in thermophoresis
T16 sequence: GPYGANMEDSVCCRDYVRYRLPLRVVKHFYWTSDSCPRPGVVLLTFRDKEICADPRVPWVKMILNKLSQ

CCL25_HUMAN [14] = biological target: T2, CCL25_HUMAN; assay: yeast surface display library FACS screen, labelled chemokine (col C: isolated in)
P546_AMBCA [15] = biological target: T15, P546_AMBCA; assay: yeast surface display FACS re-test, >3 fold MFI over control (col D);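 further: yeast displaying putative tick Evasins stained with biotinylated human chemokine plus streptavidin-Alexa647, flow cytometry, positive when MFI exceeds 3-fold the empty-vector or no-chemokine background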
P974_AMBCA = biological target: T17, P974_AMBCA (Amblyomma cajennense, UniProt A0A023FDY8 22-118); assay: yeast surface display library FACS screen, labelled chemokine (col C: isolated in)
T17 construct: Tick evasin; also called Evasin
T17 sequence: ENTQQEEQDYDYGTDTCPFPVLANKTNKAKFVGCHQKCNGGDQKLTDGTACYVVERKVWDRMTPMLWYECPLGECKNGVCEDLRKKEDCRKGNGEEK

P1243_AMBAM [16] = biological target: T11, P1243_AMBAM; assay: as above
P991_AMBCA = biological target: T18, P991_AMBCA (Amblyomma cajennense, UniProt A0A023FFD0 29-136); assay: as above
T18 construct: Tick evasin; also called Evasin
T18 sequence: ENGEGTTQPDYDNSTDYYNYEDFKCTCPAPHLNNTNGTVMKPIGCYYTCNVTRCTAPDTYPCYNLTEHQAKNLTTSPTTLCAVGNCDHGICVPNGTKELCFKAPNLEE

CCL4 = biological target: T19, CCL4 (human, UniProt P13236 24-92); assay: yeast surface display FACS re-test, >3 fold MFI over control (col D)
T19 construct: Biotinylated (detected with streptavidin-Alexa647) in yeast display; also called human CCL4
T19 sequence: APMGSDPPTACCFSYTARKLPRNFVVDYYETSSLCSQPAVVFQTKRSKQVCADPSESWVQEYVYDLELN

B1: P1209_AMBPA (other)
chain: KTDTKNAAGELPPKVAIPGCEDPATTKAPLPDDPRYYGVTIDKDGCQRKVLGSSQRQQRQVQNGRKPGRKGRGRRPVFVDLKLTVDCKRKCNGTYSQLPDGEPCLVCDGEPYGRHRTIKGGCYQGNCSSGQCHRGERKVNCYIPKNITNNVLNSVNLAE
notes: Tick evasin; also called Evasin
binding result (CCL19_HUMAN [1]): binds | binding result (CCL25_HUMAN [2]): binds | binding result (CCL8_HUMAN): binds | binding result (CXCL10_HUMAN [3]): binds | binding result (CCL20_HUMAN [4]): binds | binding result (CCL18_HUMAN): binds | binding result (CCL17_HUMAN [5]): binds | binding result (CCL5_HUMAN [6]): binds | binding result (CXCL8_HUMAN): binds | binding result (CCL1_HUMAN): binds | binding result (CCL11_HUMAN): binds

B2: P1224_IXORI (other)
chain: SDLCKMEAESSPFKLPQSSLLDAPDEEGCKYQLLFVEAEGPLVVNCTKDCPNGKIRTVVEGELCIAMVKTSSSGEATGLVGSCKRGSCVKKDDPCRTFTLSEEGDDDEEDEEEEEDEEEDEEEDEEEEEEDEEEED
notes: as for B1
binding result (CCL19_HUMAN [7]): binds | binding result (CXCL10_HUMAN [8]): binds | binding result (CCL3_HUMAN): binds

B3
binding result (P1243_AMBAM [9]): binds | binding result (P467_RHIPU): binds | binding result (P1181_AMBMA): binds | binding result (P1182_AMBMA): binds | Kd (P546_AMBCA [10]): 171 nM

B4: P1252_AMBAM (other)
chain: RGGAASVPANASIPGCGDAQTTPAAPEDQPKHYVVYRDGNGCEVKIIGTWMTTEDYNCLPDTFRKNRAPHGKVKLPASCKKTCGNAVQNLKDGTPCRKVFGDLGRRRNLIKNGCLVGACQSGLCVSGNRTISCYIPPNSTDTRATPGSFAE
notes: as for B1
binding result (CCL20_HUMAN [11]): binds | binding result (CCL17_HUMAN [12]): binds | binding result (CCL11_HUMAN): binds

B5: P1006_AMBCA (other)
chain: DTIGGIPGCGDPATTSAPEDQPKHYAVRTDKNGCKVMVIGTWMTKEDHNLLPPYISKERAPSGKVQLPASCKKNCHGKLKNLPNGTPCREVFGDLRRRRKHIKDGCKVGKCQNGLCVSEERIISCYLPPNITDPRPTHGPLAE
notes: as for B1
binding result (CCL19_HUMAN [1]): binds | binding result (CCL5_HUMAN [13]): binds | binding result (CCL22_HUMAN): binds | binding result (CCL25_HUMAN [14]): binds | binding result (CXCL8_HUMAN): binds | binding result (CCL1_HUMAN): binds | binding result (CCL11_HUMAN): binds

B6
binding result (P546_AMBCA [15]): binds | binding result (P974_AMBCA): binds | binding result (P1243_AMBAM [16]): binds | binding result (P991_AMBCA): binds

B7: P993_AMBPA (other)
chain: HRHYDPNEPCLIAGLKTPRDALPAGCRYDCMIKKNQKLRDGLLCLDVPEKVVKRMVNYLNYSCPLGTCRKGICKRKHRNVRCQKYPVFYMSPPK
notes: Tick evasin
binding result (CCL5_HUMAN [13]): binds | binding result (CCL25_HUMAN [14]): binds | binding result (CXCL8_HUMAN): binds | binding result (CCL1_HUMAN): binds | binding result (CCL20_HUMAN [11]): binds | binding result (CCL17_HUMAN [12]): binds | binding result (CCL11_HUMAN): binds

B8: P1014_AMBCA (other)
chain: DIIGGIPGCGDPTTTSAPEVPPKHFAVRTDKDGCTLMIIGTWMTTEDHNRLPPDIGEKRAPYGRVQLPASCKKNCHGKVKNLPNGTPCREVFGDPRRGRKHIKNGCTVGKCQSGLCVTDKRIISCYIPPNITDPIPTHGPWAE
notes: as for B1
binding result (CCL4): binds | binding result (CCL25_HUMAN [14]): binds | binding result (CCL1_HUMAN): binds | binding result (CCL11_HUMAN): binds
